Molecular target: U1A L49K (UniProt P09012 10-89, L49K)
Assay: fluorescence polarization

Sequence of U1A L49K (P09012 10-89 L49K): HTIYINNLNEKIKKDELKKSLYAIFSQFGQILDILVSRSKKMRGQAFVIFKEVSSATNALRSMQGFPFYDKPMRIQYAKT

Binder GGCAGAUCUGAGCCUGGGAGCUCUCUGCC (structured_RNA) [TAR RNA] has a Kd of 3.9 ± 0.4 µM.

Source: publication PMC4414246
